Data: patent publication US10414821 (dated 2019)

Legend:
[1] = molecular target: PD-1 protein (UniProt Q15116 25-167); experiment: blocking ELISA (PD-1/PD-L1)
[2] = molecular target: purified recombinant PD-1 fusion protein (Sino Biological Inc, Cat #: 10377-H08H) (human, UniProt Q15116 25-170); experiment: ELISA
Sequence of purified recombinant PD-1 fusion protein (Sino Biological Inc, Cat #: 10377-H08H) (Q15116 25-170): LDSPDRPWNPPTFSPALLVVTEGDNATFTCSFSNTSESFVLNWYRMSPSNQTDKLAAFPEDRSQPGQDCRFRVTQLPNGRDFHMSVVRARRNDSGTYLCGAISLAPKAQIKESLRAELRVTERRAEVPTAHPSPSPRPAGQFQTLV

Sequence of PD-1 protein (Q15116 25-167): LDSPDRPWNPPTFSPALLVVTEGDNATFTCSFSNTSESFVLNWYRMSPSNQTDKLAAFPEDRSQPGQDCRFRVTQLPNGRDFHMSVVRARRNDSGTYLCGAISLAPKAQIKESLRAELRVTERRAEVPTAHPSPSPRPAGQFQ

- IC50 [1]: 0.288 nM
- EC50 [2]: 0.0371 nM
B1: BA08-1 (antibody, V domains shown)
VH: QVQLVQSGAEVKKPGASVKVSCKASGYTFTSYYMYWVRQAPGQGLEWMGGVNPSNGGTNFNEKFKSRVTITADKSTSTAYMELSSLRSEDTAVYYCARRDYRYDMGFDYWGQGTTVTVSS
VL: EIVLTQSPATLSLSPGERATISCRASKGVSTSGYSYLHWYQQKPGQAPRLLIYLASYLESGVPARFSGSGSGTDFTLTISSLEPEDFATYYCQHSRELPLTFGTGTKVEIK
